Here are results for seven variants from IntAct's records for PubMed 29892012.

B1: Structure-specific endonuclease subunit SLX4 (Homo sapiens), Q8IY92 (parent)
chain: MKLSVNEAQLGFYLGSLSHLSACPGIDPRSSEDQPESLKTGQMMDESDEDFKELCASFFQRVKKHGIKEVSGERKTQKAASNGTQIRSKLKRTKQTATKTKTLQGPAEKKPPSGSQAPRTKKQRVTKWQASEPAHSVNGEGGVLASAPDPPVLRETAQNTQTGNQQEPSPNLSREKTRENVPNSDSQPPPSCLTTAVPSPSKPRTAQLVLQRMQQFKRADPERLRHASEECSLEAAREENVPKDPQEEMMAGNVYGLGPPAPESDAAVALTLQQEFARVGASAHDDSLEEKGLFFCQICQKNLSAMNVTRREQHVNRCLDEAEKTLRPSVPQIPECPICGKPFLTLKSRTSHLKQCAVKMEVGPQLLLQAVRLQTAQPEGSSSPPMFSFSDHSRGLKRRGPTSKKEPRKRRKVDEAPSEDLLVAMALSRSEMEPGAAVPALRLESAFSERIRPEAENKSRKKKPPVSPPLLLVQDSETTGRQIEDRVALLLSEEVELSSTPPLPASRILKEGWERAGQCPPPPERKQSFLWEGSALTGAWAMEDFYTARLVPPLVPQRPAQGLMQEPVPPLVPPEHSELSERRSPALHGTPTAGCGSRGPSPSASQREHQALQDLVDLAREGLSASPWPGSGGLAGSEGTAGLDVVPGGLPLTGFVVPSQDKHPDRGGRTLLSLGLLVADFGAMVNNPHLSDVQFQTDSGEVLYAHKFVLYARCPLLIQYVNNEGFSAVEDGVLTQRVLLGDVSTEAARTFLHYLYTADTGLPPGLSSELSSLAHRFGVSELVHLCEQVPIATDSEGKPWEEKEAENCESRAENFQELLRSMWADEEEEAETLLKSKDHEEDQENVNEAEMEEIYEFAATQRKLLQEERAAGAGEDADWLEGGSPVSGQLLAGVQVQKQWDKVEEMEPLEPGRDEAATTWEKMGQCALPPPQGQHSGARGAEAPEQEAPEEALGHSSCSSPSRDCQAERKEGSLPHSDDAGDYEQLFSSTQGEISEPSQITSEPEEQSGAVRERGLEVSHRLAPWQASPPHPCRFLLGPPQGGSPRGSHHTSGSSLSTPRSRGGTSQVGSPTLLSPAVPSKQKRDRSILTLSKEPGHQKGKERRSVLECRNKGVLMFPEKSPSIDLTQSNPDHSSSRSQKSSSKLNEEDEVILLLDSDEELELEQTKMKSISSDPLEEKKALEISPRSCELFSIIDVDADQEPSQSPPRSEAVLQQEDEGALPENRGSLGRRGAPWLFCDRESSPSEASTTDTSWLVPATPLASRSRDCSSQTQISSLRSGLAVQAVTQHTPRASVGNREGNEVAQKFSVIRPQTPPPQTPSSCLTPVSPGTSDGRRQGHRSPSRPHPGGHPHSSPLAPHPISGDRAHFSRRFLKHSPPGPSFLNQTPAGEVVEVGDSDDEQEVASHQANRSPPLDSDPPIPIDDCCWHMEPLSPIPIDHWNLERTGPLSTSSPSRRMNEAADSRDCRSPGLLDTTPIRGSCTTQRKLQEKSSGAGSLGNSRPSFLNSALWDVWDGEEQRPPETPPPAQMPSAGGAQKPEGLETPKGANRKKNLPPKVPITPMPQYSIMETPVLKKELDRFGVRPLPKRQMVLKLKEIFQYTHQTLDSDSEDESQSSQPLLQAPHCQTLASQTYKPSRAGVHAQQEATTGPGAHRPKGPAKTKGPRHQRKHHESITPPSRSPTKEAPPGLNDDAQIPASQESVATSVDGSDSSLSSQSSSSCEFGAAFESAGEEEGEGEVSASQAAVQAADTDEALRCYIRSKPALYQKVLLYQPFELRELQAELRQNGLRVSSRRLLDFLDTHCITFTTAATRREKLQGRRRQPRGKKKVERN
partner: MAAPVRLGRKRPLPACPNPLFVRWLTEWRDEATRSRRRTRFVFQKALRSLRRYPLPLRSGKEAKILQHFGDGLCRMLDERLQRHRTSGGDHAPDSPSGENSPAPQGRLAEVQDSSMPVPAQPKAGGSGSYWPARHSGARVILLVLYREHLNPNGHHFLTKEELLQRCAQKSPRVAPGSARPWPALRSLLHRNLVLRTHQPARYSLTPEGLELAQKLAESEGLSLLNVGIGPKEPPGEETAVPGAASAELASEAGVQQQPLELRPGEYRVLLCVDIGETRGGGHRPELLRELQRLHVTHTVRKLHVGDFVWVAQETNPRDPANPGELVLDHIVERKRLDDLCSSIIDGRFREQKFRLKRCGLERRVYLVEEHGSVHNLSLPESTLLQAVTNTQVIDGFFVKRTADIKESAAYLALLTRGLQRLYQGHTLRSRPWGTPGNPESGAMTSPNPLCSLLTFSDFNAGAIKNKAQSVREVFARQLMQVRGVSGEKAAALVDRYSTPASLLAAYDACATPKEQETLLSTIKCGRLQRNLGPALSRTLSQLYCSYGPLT
B2: Protein VAC14 homolog (Homo sapiens), Q08AM6 (parent)
chain: MNPEKDFAPLTPNIVRALNDKLYEKRKVAALEIEKLVREFVAQNNTVQIKHVIQTLSQEFALSQHPHSRKGGLIGLAACSIALGKDSGLYLKELIEPVLTCFNDADSRLRYYACEALYNIVKVARGAVLPHFNVLFDGLSKLAADPDPNVKSGSELLDRLLKDIVTESNKFDLVSFIPLLRERIYSNNQYARQFIISWILVLESVPDINLLDYLPEILDGLFQILGDNGKEIRKMCEVVLGEFLKEIKKNPSSVKFAEMANILVIHCQTTDDLIQLTAMCWMREFIQLAGRVMLPYSSGILTAVLPCLAYDDRKKSIKEVANVCNQSLMKLVTPEDDELDELRPGQRQAEPTPDDALPKQEGTASGGPDGSCDSSFSSGISVFTAASTERAPVTLHLDGIVQVLNCHLSDTAIGMMTRIAVLKWLYHLYIKTPRKMFRHTDSLFPILLQTLSDESDEVILKDLEVLAEIASSPAGQTDDPGPLDGPDLQASHSELQVPTPGRAGLLNTSGTKGLECSPSTPTMNSYFYKFMINLLKRFSSERKLLEVRGPFIIRQLCLLLNAENIFHSMADILLREEDLKFASTMVHALNTILLTSTELFQLRNQLKDLKTLESQNLFCCLYRSWCHNPVTTVSLCFLTQNYRHAYDLIQKFGDLEVTVDFLAEVDKLVQLIECPIFTYLRLQLLDVKNNPYLIKALYGLLMLLPQSSAFQLLSHRLQCVPNPELLQTEDSLKAAPKSQKADSPSIDYAELLQHFEKVQNKHLEVRHQRSGRGDHLDRRVVL
partner: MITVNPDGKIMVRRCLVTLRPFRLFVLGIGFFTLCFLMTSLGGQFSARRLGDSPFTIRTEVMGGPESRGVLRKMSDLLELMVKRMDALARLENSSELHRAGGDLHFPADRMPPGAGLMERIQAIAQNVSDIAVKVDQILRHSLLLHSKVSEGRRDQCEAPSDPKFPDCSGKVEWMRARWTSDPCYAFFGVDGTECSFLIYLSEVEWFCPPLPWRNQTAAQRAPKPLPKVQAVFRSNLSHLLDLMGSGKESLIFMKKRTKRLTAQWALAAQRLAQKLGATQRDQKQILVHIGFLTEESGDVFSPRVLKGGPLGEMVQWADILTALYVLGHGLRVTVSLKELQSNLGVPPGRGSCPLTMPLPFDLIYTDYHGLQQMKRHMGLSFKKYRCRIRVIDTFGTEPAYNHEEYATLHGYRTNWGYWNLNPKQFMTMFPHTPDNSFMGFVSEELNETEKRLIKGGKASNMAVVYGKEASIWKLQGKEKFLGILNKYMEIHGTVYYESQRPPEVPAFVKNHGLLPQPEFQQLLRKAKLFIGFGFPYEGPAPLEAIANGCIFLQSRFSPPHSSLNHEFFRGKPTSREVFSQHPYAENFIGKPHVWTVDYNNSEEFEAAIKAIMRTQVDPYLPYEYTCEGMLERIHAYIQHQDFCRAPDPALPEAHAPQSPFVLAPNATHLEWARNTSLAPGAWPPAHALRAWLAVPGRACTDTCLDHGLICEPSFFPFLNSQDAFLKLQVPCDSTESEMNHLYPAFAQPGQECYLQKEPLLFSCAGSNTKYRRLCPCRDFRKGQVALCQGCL
B3: Protein VAC14 homolog (Homo sapiens), Q08AM6 (parent)
chain: B2 chain
partner: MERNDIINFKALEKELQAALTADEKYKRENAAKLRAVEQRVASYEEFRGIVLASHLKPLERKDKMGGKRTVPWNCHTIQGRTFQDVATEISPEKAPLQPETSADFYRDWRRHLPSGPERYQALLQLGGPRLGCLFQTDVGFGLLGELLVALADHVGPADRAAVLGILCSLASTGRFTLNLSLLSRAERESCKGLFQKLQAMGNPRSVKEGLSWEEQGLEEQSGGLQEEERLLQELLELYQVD
B4: Genetic suppressor element 1 (Homo sapiens), Q14687 (parent)
chain: MKGMSHEPKSPSLGMLSTATRTTATVNPLTPSPLNGALVPSGSPATSSALSAQAAPSSSFAAALRKLAKQAEEPRGSSLSSESSPVSSPATNHSSPASTPKRVPMGPIIVPPGGHSVPSTPPVVTIAPTKTVNGVWRSESRQDAGSRSSSGGRERLIVEPPLPQEKAGGPAIPSHLLSTPYPFGLSPSSVVQDSRFPPLNLQRPVHHVVPPSTVTEDYLRSFRPYHTTDDLRMSSLPPLGLDPATAAAYYHPSYLAPHPFPHPAFRMDDSYCLSALRSPFYPIPTPGSLPPLHPSAMHLHLSGVRYPPELSHSSLAALHSERMSGLSAERLQMDEELRREREREREREREREADREREKEREREREKEREQEKEREREKERERELERQREQRAREKELLAAKALEPSFLPVAELHGLRGHATEERGKPSEQLTPTRAEKLKDAGLQAPKPVQHPLHPVPTPHHTVPSLISNHGIFSLPSSSAATALLIQRTNEEEKWLARQRRLRQEKEDRQSQVSEFRQQVLEQHLDMGRPPVPAEAEHRPESTTRPGPNRHEPGGRDPPQHFGGPPPLISPKPQLHAAPTALWNPVSLMDNTLETRRAESHSLHSHPAAFEPSRQAAVPLVKVERVFCPEKAEEGPRKREPAPLDKYQPPPPPPREGGSLEHQPFLPGPGPFLAELEKSTQTILGQQRASLPQAATFGELSGPLKPGSPYRPPVPRAPDPAYIYDEFLQQRRRLVSKLDLEERRRREAQEKGYYYDLDDSYDESDEEEVRAHLRCVAEQPPLKLDTSSEKLEFLQLFGLTTQQQKEELVAQKRRKRRRMLRERSPSPPTIQSKRQTPSPRLALSTRYSPDEMNNSPNFEEKKKFLTIFNLTHISAEKRKDKERLVEMLRAMKQKALSAAVADSLTNSPRDSPAVSLSEPATQQASLDVEKPVGVAASLSDIPKAAEPGKLEQVRPQELSRVQELAPASGEKARLSEAPGGKKSLSMLHYIRGAAPKDIPVPLSHSTNGKSKPWEPFVAEEFAHQFHESVLQSTQKALQKHKGSVAVLSAEQNHKVDTSVHYNIPELQSSSRAPPPQHNGQQEPPTARKGPPTQELDRDSEEEEEEDDEDGEDEEEVPKRKWQGIEAVFEAYQEHIEEQNLERQVLQTQCRRLEARHYSLSLTAEQLSHSVAELRSQKQKMVSERERLQAELDHLRKCLALPAMHWPRGYLKGYPR
partner: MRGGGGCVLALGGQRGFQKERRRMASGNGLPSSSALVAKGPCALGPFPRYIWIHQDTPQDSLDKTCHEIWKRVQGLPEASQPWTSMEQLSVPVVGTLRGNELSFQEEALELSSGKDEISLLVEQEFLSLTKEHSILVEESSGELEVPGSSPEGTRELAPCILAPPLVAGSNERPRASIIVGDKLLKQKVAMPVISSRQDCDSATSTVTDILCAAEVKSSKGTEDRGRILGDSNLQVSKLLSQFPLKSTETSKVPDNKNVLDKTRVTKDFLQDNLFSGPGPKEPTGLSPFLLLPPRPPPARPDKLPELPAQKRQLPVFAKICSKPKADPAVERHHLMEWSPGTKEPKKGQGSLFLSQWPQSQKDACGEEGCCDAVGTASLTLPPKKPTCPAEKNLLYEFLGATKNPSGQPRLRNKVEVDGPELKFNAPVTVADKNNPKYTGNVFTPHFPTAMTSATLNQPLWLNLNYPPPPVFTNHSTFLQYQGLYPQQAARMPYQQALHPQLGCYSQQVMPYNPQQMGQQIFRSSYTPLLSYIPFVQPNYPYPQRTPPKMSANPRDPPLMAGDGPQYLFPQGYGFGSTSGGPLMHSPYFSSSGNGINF
B5: Genetic suppressor element 1 (Homo sapiens), Q14687 (parent)
chain: B4 chain
partner: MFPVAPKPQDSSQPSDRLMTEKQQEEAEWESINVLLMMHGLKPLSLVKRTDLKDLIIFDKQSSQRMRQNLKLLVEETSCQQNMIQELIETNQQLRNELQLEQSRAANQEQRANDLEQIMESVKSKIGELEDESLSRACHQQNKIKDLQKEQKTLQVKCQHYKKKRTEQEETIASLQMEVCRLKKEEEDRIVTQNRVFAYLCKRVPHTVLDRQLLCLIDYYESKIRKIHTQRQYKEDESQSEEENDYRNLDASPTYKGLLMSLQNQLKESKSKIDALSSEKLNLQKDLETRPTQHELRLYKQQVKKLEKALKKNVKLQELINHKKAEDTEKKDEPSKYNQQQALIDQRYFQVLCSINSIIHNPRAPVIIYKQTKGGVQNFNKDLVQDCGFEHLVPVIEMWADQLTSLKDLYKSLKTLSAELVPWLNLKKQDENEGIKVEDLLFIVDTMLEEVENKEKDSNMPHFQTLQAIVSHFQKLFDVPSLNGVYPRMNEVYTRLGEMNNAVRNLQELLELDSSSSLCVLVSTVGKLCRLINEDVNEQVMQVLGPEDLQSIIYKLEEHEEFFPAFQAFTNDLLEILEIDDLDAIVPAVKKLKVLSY

Variants of B1 are the subject of one assay. As to conditions: with mus81_human MUS81, Q96NY9.
For V886L, the “effect of a mutation on the interaction” value is listed as “with no effect”.

The next assay covers variants of B1. As to conditions: with mus81_human MUS81, Q96NY9. This is another data set of the same source.
Take F708L: the “effect of a mutation on the interaction” value is “disrupting interaction strength”.

In another assay the parent is B2. Particulars: with mgt5b_human MGAT5B.
As for A127S, the “effect of a mutation on the interaction” value is “with no effect”.

In the next assay the parent is B3. As to conditions: with daa19_human DNAAF19, Q8IW40.
With A127S, the “effect of a mutation on the interaction” value is listed as “with no effect”.

In another assay the parent is B4. Particulars: with ca094_human C1orf94, Q6P1W5.
R503Q: the “effect of a mutation on the interaction” value is listed as “with no effect”.

In the next assay the parent is B4. Particulars: with ca094_human C1orf94, Q6P1W5. This is another data set of the same source.
Take E368K: the “effect of a mutation on the interaction” value is recorded as “with no effect”.

The variants in a further assay derive from B5. Particulars: with cep70_human CEP70, Q8NHQ1.
For E368K, the “effect of a mutation on the interaction” value is listed as “with no effect”.
